Assay results reported in article PMC3502260, “Plasmodium serine hydroxymethyltransferase as a potential anti-malarial target: inhibition studies using improved methods for enzyme production and assay” (Malaria Journal, 2012).

Legend:
purified protein [1] = substrate: N[C@@H](CO)C(=O)O; assay: purified protein; type: biochemical, Plasmodium vivax; details: apparent, 0.4 mM THF fixed, 25 °C, 50 mM HEPES pH 7, aerobic
purified protein [2] = substrate: Nc1nc2c(c(=O)[nH]1)N[C@@H](CNc1ccc(C(=O)N[C@@H](CCC(=O)O)C(=O)O)cc1)CN2; assay: purified protein; type: biochemical, Plasmodium vivax; details: apparent, 2 mM L-serine fixed, 25 °C, 50 mM HEPES pH 7, aerobic

B1: PvSHMT (Plasmodium vivax Sal-1) (protein)
chain: MFNNEPLEQIDKELHDILADEEKRQRETINLIASENLTNGAVRECLGNRVSNKYSEGYPKKRYYGGNDFIDKIEELCQKRALEAFNVSDEEWGVNVQPLSGSAANVQALYALVGVKGKIMGMHLCSGGHLTHGFFDEKKKVSITSDMFESKLYKCNSQGYVDLDAVREMALSFKPKVIICGYTSYPRDIDYQQFRQICDEVNAYLFADISHISSFVACNILNNPFLHADVVTTTTHKILRGPRSALIFFNKKRNPGIEQKINSAVFPSFQGGPHNNKIAAVACQLKEVHSPAFKEYTQQVLLNSKALAKALISKQIDLVTNGTDNHLIVVDLRKFSITGSKLQETCNAINVSLNKNTIPSDVDCVSPSGVRIGTPAMTTRGAKEKDMEFIADVLARAIKITVDLQEQYGKKLVDFKKGLPGNAQLQQLKQEVVTWAGALPFP
notes: recombinant, expressed in E. coli BL21(DE3) as in an earlier report; dimer
B1 was tested, and the Km (purified protein [1]) was 190 ± 20 µM, the kcat (purified protein [1]) was 1.26 ± 0.13 s⁻¹ and the Km (purified protein [2]) was 90 ± 20 µM. For the same protein, the kcat (purified protein [2]) was 1.26 ± 0.13 s⁻¹.
